From US8951792B2, “Methods for making definitive endoderm hepatocyte (DE-hep) progenitor cells” (Cellartis AB, priority 2007, dated 2015)

Tests used:
hBS cells = experiment: Sox17/Sox7 immunostaining of induced definitive endoderm; format: cell-based, human; conditions: after 4 days in Activin A
Source text: We used Activin A, and Activin A in combination with Wnt3a and/or FGF2 to generate DE. After 4 to 5 days in Stage 1 the hBS cell colony differentiated and genetic markers for early DE were examined using quantitative real-time real time-PCR (Q-PCR). Activin A induced a strong wave of early endoderm at day 3 to 5, and was highlighted by high expression levels of Sox17, HNF3beta (HNF3b or HNF3b) and Cxcr4 expression (FIG. 4) and then reduced to near baseline levels (data not shown). […] Furthermore they up regulate early liver markers like AFP or AAT. At this early stage in differentiation and development, this indicates the presence of extraembryonic endoderm (E×E) in intrinsically differentiating colonies (FIGS. 5 and 10). The expression data were confirmed by co-staining of Sox17/Sox7, Sox17/Cxcr4, Sox17/Oct4, Sox7/HNF3b (data not shown). […] The changes of gene expression after Activin A treatment were associated to morphological changes and distinct differentiation pattern of the colonies (FIG. 2). After 4 to 5 days induction with Activin A containing medium cells gathered together and formed a ring of epithelial cells around the colony. […]
Activin A induces definitive endoderm detected by a combination of Sox17+/Sox7-, 80-90% of the total cells in a Activin A or Activin A/FGF2 treated culture are estimated to be Sox17 positive and negative for Sox7 (manual counting in microscope). […]

hESC line SA002 = experiment: Substituting Activin A with Activin B for induction of endoderm, real-time PCR; format: cell-based, human; conditions: 100 ng/ml with 5 ng/ml bFGF, 5 days
Description: Undifferentiated hESC line SA002 were exposed to either activin A (100 ng/ml) or activin B (100 ng/ml) in the presence of 5 ng/ml bFGF for 5 days and analyzed for gene expression.
mRNA expression of Foxa2, Sox17, CXCR4, Sox7, CDX2, MT was measured by real-time PCR using the ABI/TaqMan method. In short, RNA was isolated from the cell cultures by using Qiagen's RNeasy system. cDNA was synthesized by using the ABI high capacity cDNA synthesis kit. RT-PCR was performed in a ABI 7500 by using TaqMan probe. The expression level was normalized to CREBBP expression.

B1: Activin A (protein, UniProt P08476 311-426, looked up)
Inhibin beta A chain: GLECDGKVNICCKKQFFVSFKDIGWNDWIIAPSGYHANYCEGECPSHIAGTSGSSLSFHSTVINHYRMRGHSPFANLKSCCVPTKLRPMSMLYYDDGQNIIKKDIQNMIVEECGCS
notes: TGF-beta family member used at 100 ng/ml to induce definitive endoderm
- remaining cells Sox17 positive (hBS cells): more than 70%

B2: Activin B (protein, UniProt P09529 293-407, looked up)
Inhibin beta B chain: GLECDGRTNLCCRQQFFIDFRLIGWNDWIIAPTGYYGNYCEGSCPAYLAGVPGSASSFHTAVVNQYRMRGLNPGTVNSCCIPTKLSTMSMLYFDDEYNIVKRDVPNMIVEECGCA
- extraembryonal (ExE) markers Sox7, CDX2 and MT compared to activin A (hESC line SA002): the same or lower
- mRNA expression of endodermal markers Foxa2, Sox17 and CXCR4 compared to activin A (hESC line SA002): either the same or even higher
